In article PMC8809517, “Cofactor-independent RNA editing by a synthetic S-type PPR protein”:

T1: GFP-9S library array, motif 4 ND N98P;D124V (synthetic construct, N98P;D124V)
T1 chain: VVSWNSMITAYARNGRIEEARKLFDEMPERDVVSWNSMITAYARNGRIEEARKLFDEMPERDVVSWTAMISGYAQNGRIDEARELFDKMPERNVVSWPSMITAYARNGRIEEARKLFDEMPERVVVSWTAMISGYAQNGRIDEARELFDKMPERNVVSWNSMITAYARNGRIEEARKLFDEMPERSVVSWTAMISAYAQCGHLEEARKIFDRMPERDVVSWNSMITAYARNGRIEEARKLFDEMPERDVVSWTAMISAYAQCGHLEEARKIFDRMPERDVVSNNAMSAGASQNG

T2: GFP-9S library array, motif 4 ND N98K;D124P (synthetic construct, N98K;D124P)
T2 chain: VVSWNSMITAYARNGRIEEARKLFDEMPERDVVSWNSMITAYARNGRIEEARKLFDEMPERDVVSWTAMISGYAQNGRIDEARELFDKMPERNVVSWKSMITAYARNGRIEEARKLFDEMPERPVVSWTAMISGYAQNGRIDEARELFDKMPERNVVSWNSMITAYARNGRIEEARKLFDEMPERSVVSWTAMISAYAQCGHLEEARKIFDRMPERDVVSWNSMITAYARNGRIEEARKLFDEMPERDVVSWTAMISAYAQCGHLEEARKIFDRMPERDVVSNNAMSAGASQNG

T3: GFP-9S library array, motif 4 ND N98H;D124V (synthetic construct, N98H;D124V)
T3 chain: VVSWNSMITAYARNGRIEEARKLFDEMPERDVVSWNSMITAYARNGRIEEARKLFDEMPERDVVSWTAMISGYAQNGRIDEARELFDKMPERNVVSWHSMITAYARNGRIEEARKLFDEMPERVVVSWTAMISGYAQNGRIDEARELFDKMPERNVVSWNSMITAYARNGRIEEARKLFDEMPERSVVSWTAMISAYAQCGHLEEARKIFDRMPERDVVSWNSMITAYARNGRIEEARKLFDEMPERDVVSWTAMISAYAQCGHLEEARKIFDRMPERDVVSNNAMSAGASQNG

T4: GFP-9S library array, motif 4 ND N98Q;D124R (synthetic construct, N98Q;D124R)
T4 chain: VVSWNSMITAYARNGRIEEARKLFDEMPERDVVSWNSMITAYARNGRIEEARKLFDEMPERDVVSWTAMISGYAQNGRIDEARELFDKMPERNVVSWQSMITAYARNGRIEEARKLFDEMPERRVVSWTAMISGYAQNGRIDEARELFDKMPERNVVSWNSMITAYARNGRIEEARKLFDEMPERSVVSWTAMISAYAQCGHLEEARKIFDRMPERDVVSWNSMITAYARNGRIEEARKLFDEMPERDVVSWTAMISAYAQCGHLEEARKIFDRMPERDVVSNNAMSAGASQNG

T5: GFP-9S library array, motif 4 ND N98T;D124T (synthetic construct, N98T;D124T)
T5 chain: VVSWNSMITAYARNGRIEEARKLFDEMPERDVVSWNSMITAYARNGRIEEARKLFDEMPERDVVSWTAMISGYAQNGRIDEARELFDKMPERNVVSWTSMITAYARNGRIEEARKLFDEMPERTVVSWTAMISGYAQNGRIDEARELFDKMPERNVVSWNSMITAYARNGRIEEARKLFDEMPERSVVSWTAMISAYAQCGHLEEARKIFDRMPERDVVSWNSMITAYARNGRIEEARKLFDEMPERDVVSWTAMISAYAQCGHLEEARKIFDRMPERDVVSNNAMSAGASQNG


How the values were obtained:
Experiment in all cases: high-throughput RNA pulldown from lysate on Ni-NTA beads; HRP: 50 mM Tris pH 8, 150 mM NaCl, 1 mM beta-mercaptoethanol, 50 ug/ml BSA, 3 ug/ml yeast RNA, 0.5% heparin; ITC and FP: Tris pH 8, 200 mM KCl, 5% glycerol; MST: 50 mM Tris pH 8, 200 mM NaCl, 1 mM DTT, BSA, heparin, 0.05% Tween 20
Conditions in all cases: tags: N-terminal His-eGFP
[1] = biological target: T1, GFP-9S library array, motif 4 ND …
[2] = biological target: T2, GFP-9S library array, motif 4 ND …
[3] = biological target: T3, GFP-9S library array, motif 4 ND …
[4] = biological target: T4, GFP-9S library array, motif 4 ND …
[5] = biological target: T5, GFP-9S library array, motif 4 ND …

| Binder | Kd ([1]; label: 5' IRDye 800CW) [µM] | Kd ([2]; label: 5' IRDye 800CW) [µM] | Kd ([3]; label: 5' IRDye 800CW) [µM] | Kd ([4]; label: 5' IRDye 800CW) [µM] | Kd ([5]; label: 5' IRDye 800CW) [µM] | Kd ([1]; label: 5' Cy5) [µM] | Kd ([2]; label: 5' Cy5) [µM] | Kd ([3]; label: 5' Cy5) [µM] | Kd ([4]; label: 5' Cy5) [µM] | Kd ([5]; label: 5' Cy5) [µM] |
| --- | --- | --- | --- | --- | --- | --- | --- | --- | --- | --- |
| AUUAUACGUGA (ssRNA) [IR-rpoA-U] | 0.291 | 0.0764 | 0.0573 | 0.138 | 0.0631 | – | – | – | – | – |
| AUUAGACGUGA (ssRNA) [Cy5-rpoA-G] | – | – | – | – | – | 0.15 | 0.105 | 0.0952 | 0.0777 | 0.0814 |
| AUUACACGUGA (ssRNA) [Cy5-rpoA] | – | – | – | – | – | 0.121 | 0.107 | 0.0813 | 0.0952 | 0.0831 |
| AUUAAACGUGA (ssRNA) [IR-rpoA-A] | 0.407 | 0.194 | 0.115 | 0.201 | 0.0183 | – | – | – | – | – |
